Assay results published in patent US20250197870A1, “RECOMBINANT E. COLI STRAIN PRODUCING 1,3-BUTANEDIOL FROM GLUCOSE AND METHOD FOR PRODUCING 1,3-BUTANEDIOL USING SAME” (ActivON Co.,Ltd., priority 2022, published 2025).

test: Activity of purely isolated 3-HBA reductases (alcohol dehydrogenases) for 3-HBA; type: biochemical; conditions: pure enzyme, substrate 3-HBA
Description: The activity of alcohol dehydrogenase was determined by photometric monitoring of the increase/decrease in NADP+/NADPH at 340 nm. The reaction mixture included 50 mM Tris-HCl at pH 7.0. For measurement of forward reactions, preparation was followed to include 0.15 mM NADPH and 5 mM 3-hydroxybutyraldehyde as substrates at 37° C. For reverse reactions, 2 mM NADP+ and 30 mM 1,3-BDO were used as cofactors and substrates, respectively. For the reduction reaction, 1 unit of enzymatic activity was defined as the amount of enzyme required to oxidize 1 μmol of NAD(P)H to NADP+ for 1 minute. For oxidation reactions, 1 unit of enzymatic activity was defined as the amount of enzyme required to reduce 1 μmol of NAD(P)+ to NAD(P)H for 1 minute.
Previously, 4 types of enzymes such as Cs_bdh, Ec_yqhD, Kp_dhaT, and Lr_pduQ were tested with 3-HBA reductase (FIG. 3), of which yqhD showing the best performance was used. However, the constant accumulation of 3-HBA and 3-HB indicates a lack of activity in these enzymes. Four aldoketoreductases (AKRs) were tested to improve the conversion from 3-HBA to 1,3-BDO. Two of the selected AKRs were derived from P. denitrificans, one derived from P. putida, and the other from P. aeruginosa. In addition, ygjB and yahK, also known as E. coli-derived alcohol dehydrogenase (ADH), were tested. Thereamong, enzymes coded by ygjB have been reported to have high activity for various aldehydes, especially high activity for butyraldehyde (kcat/Km, 221 sec-1 mM-1), while the enzyme coded by yahK has also been reported to have high activity for various aldehydes, especially high activity for butyraldehyde (kcat/Km, 19.8 sec-1 mM-1). Several ADH genes were cloned into E. coli, mass-produced, isolated and purified, and then tested for the activity of pure enzymes for 3-HBA.

Row | Molecule | Purely isolated enzymatic activity
1 | DhaT: alcohol dehydrogenase from K. pneumoniae (protein, UniProt Q59477 1-387, looked up) 1,3-propanediol dehydrogenase: MSYRMFDYLVPNVNFFGPNAISVVGERCQLLGGKKALLVTDKGLRAIKDGAVDKTLHYLREAGIEVAIFDGVEPNPKDTNVRDGLAVFRREQCDIIVTVGGGSPHDCGKGIGIAATHEGDLYQYAGIETLTNPLPPIVAVNTTAGTASEVTRHCVLTNTETKVKFVIVSWRNLPSVSINDPLLMIGKPAALTAATGMDALTHAVEAYISKDANPVTDAAAMQAIRLIARNLRQAVALGSNLQARENMAYASLLAGMAFNNANLGYVHAMAHQLGGLYDMPHGVANAVLLPHVARYNLIANPEKFADIAELMGENITGLSTLDAAEKAIAAITRLSMDIGIPQHLRDLGVKEADFPYMAEMALKDGNAFSNPRKGNEQEIAAIFRQAF | 0.44 U/mg protein
2 | YqhD: 3-hydroxybutyraldehyde reductase (E. coli), SEQ ID NO: 34 gene product (protein, UniProt Q46856 1-387, looked up) NADPH-dependent aldehyde …: MNNFNLHTPTRILFGKGAIAGLREQIPHDARVLITYGGGSVKKTGVLDQVLDALKGMDVLEFGGIEPNPAYETLMNAVKLVREQKVTFLLAVGGGSVLDGTKFIAAAANYPENIDPWHILQTGGKEIKSAIPMGCVLTLPATGSESNAGAVISRKTTGDKQAFHSAHVQPVFAVLDPVYTYTLPPRQVANGVVDAFVHTVEQYVTKPVDAKIQDRFAEGILLTLIEDGPKALKEPENYDVRANVMWAATQALNGLIGAGVPQDWATHMLGHELTAMHGLDHAQTLAIVLPALWNEKRDTKRAKLLQYAERVWNITEGSDDERIDAAIAATRNFFEQLGVPTHLSDYGLDGSSIPALLKKLEEHGMTQLGENHDITLDVSRRIYEAAR | 0.06 U/mg protein
3 | YahK: E. coli-derived alcohol dehydrogenase, 3-hydroxybutyraldehyde reductase, SEQ ID NO: 36 gene product (protein, listed as Escherichia coli) MKIKAVGAYSAKQPLEPMDITRREPGPNDVKIEIAYCGVCHSDLHQVRSEWAGTVYPCVPGHEIVGRVVAVGDQVEKYAPGDLVGVGCIVDSCKHCEECEDGLENYCDHMTGTYNSPTPDEPGHTLGGYSQQIVVHERYVLRIRHPQEQLAAVAPLLCAGITTYSPLRHWQAGPGKKVGVVGIGGLGHMGIKLAHAMGAHVVAFTTSEAKREAAKALGADEVVNSRNADEMAAHLKSFDFILNTVAAPHNLDDFTTLLKRDGTMTLVGAPATPHKSPEVFNLIMKRRAIAGSMIGGIPETQEMLDFCAEHGIVADIEMIRADQINEAYERMLRGDVKYRFVIDNRTLTD | 6.98 U/mg protein
4 | YgjB (Ahr): E. coli-derived alcohol dehydrogenase, 3-hydroxybutyraldehyde reductase, SEQ ID NO: 35 gene product (protein, listed as Escherichia coli) MSMIKSYAAKEAGGELEVYEYDPGELRPQDVEVQVDYCGICHSDLSMIDNEWGFSQYPLVAGHEVIGRVVALGSAAQDKGLQVGQRVGIGWTARSCGHCDACISGNQINCEQGAVPTIMNRGGFAEKLRADWQWVIPLPENIDIESAGPLLCGGITVFKPLLMHHITATSRVGVIGIGGLGHIAIKLLHAMGCEVTAFSSNPAKEQEVLAMGADKVVNSRDPQALKALAGQFDLIINTVNVSLDWQPYFEALTYGGNFHTVGAVLTPLSVPAFTLIAGDRSVSGSATGTPYELRKLMRFAARSKVAPTTELFPMSKINDAIQHVRDGKARYRVVLKADF | 238 U/mg protein
